# Measurements from patent publication US20100248309A1.
# Biological target: elastase
# Test: Given as 'coupling constant'. Second-order association with elastase, 8 nM each, residual elastase activity on succinyl-Ala-Ala-Ala-pNA at 410 nm over 1-10 min (Beatty et al.)
row,Substance,kon [M⁻¹ s⁻¹]
1,"Human blood plasma AT (alpha-1-antitrypsin, A9204, Sigma) (from UniProt P01009 25-418)",1.7e+06
2,"Mutant recombinant AT F51L/M374I (human alpha-1-antitrypsin mutein, Korean Patent No. 133252) (from UniProt P01009 25-418)",1.7e+06
3,Mutant recombinant AT K168C/F189C (with disulfide bond) (human alpha-1-antitrypsin mutein) (from UniProt P01009 25-418),1.8e+06
4,wild type E. coli recombinant AT (human alpha-1-antitrypsin) (from UniProt P01009 26-418),1.6e+06
